Results: patent US20020155575
Several values for one entry are separate records, joined by “and”; a condition that tells them apart may be missing. Equal entries are not always repeated.

T1: trypsin inhibitor type IV-0 (Ovo-inhibitor), Sigma T-1886 (UniProt P10184)
T1 sequence: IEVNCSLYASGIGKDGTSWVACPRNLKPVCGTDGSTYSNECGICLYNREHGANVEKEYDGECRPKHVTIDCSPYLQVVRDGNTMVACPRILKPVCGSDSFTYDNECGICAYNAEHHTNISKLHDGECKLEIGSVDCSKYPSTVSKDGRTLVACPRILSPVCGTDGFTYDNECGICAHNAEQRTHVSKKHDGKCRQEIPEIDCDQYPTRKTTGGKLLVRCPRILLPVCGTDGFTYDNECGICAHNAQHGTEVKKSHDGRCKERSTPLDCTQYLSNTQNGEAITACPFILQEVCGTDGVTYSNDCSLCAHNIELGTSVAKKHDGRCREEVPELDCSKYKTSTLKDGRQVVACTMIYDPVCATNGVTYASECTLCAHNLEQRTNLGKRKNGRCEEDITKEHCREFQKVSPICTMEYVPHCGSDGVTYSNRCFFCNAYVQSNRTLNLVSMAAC

T2: trypsin inhibitor type IV-0 (Ovo-inhibitor), Sigma T-1886, P10184
T2 chain: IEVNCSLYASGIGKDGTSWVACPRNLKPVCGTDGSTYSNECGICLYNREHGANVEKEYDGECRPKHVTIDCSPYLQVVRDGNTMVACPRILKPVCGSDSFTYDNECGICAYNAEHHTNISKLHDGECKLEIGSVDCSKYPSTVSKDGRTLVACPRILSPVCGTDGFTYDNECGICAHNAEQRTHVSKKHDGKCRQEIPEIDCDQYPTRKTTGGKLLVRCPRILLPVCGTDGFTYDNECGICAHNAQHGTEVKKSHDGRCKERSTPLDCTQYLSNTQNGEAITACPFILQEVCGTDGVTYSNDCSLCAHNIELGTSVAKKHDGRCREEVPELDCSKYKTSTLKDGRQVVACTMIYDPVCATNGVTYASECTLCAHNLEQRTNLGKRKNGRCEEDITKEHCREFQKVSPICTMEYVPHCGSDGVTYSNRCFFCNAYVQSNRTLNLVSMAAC

B1: SAVINASE (subtilisin 309 from B. lentus) (protein)
chain: AQSVPWGISRVQAPAAHNRGLTGSGVKVAVLDTGISTHPDLNIRGGASFVPGEPSTQDGNGHGTHVAGTIAALNNSIGVLGVAPSAELYAVKVLGASGSGSVSSIAQGLEWAGNNGMHVANLSLGSPSPSATLEQAVNSATSRGVLVVAASGNSGAGSISYPARYANAMAVGATDQNNNRASFSQYGAGLDIVAPGVNVQSTYPGSTYASLNGTSMATPHVAGAAALVKQKNPSWSNVQIRNHLKNTATSLGSTNLYGSGLVNAEAATR

What follows are molecules tested against T1, trypsin inhibitor type IV-0 (Ovo-inhibitor), Sigma T-1886.

Molecule | Residual Activity (%)
subtilisin 309 variant L42LN | 69.2%
subtilisin 309 variant L217LP + S99SD + S99A | 97.0%
subtilisin 309 variant S99D + S101R + S103A + V104I + G160S + A194P + V199M + V205I + *216aD | 24.0%
subtilisin 309 variant S99D + S101R + S103A + V104I + G160S + A194P + V199M + V205I + *216aE | 25.4%
subtilisin 309 variant S99SD + S99A + N155NA | 7.4%
subtilisin 309 variant S99SD + S99A + N155ND | 10.7% and 7.1%
subtilisin 309 variant S99SD + S99A + N155NR | 6.5%
subtilisin 309 variant S99SD + S99A + S216SDP | 35.0%

Target: T2, trypsin inhibitor type IV-0 …

Molecule | Residual Activity (%)
B1 | <5%
